We go through one protein from paper PMC2706497.

What is called Km is the substrate concentration at which the rate is half of its maximum.

Substrate in the data set: NCCCCc1ccccc1
Description: steady-state kinetics. Format: biochemical, Homo sapiens. Conditions: FAD (covalent).

B1: MAO-B (Homo sapiens) (protein)
chain: SNKCDVVVVGGGISGMAAAKLLHDSGLNVVVLEARDRVGGRTYTLRNQKVKYVDLGGSYVGPTQNRILRLAKELGLETYKVNEVERLIHHVKGKSYPFRGPFPPVWNPITYLDHNNFWRTMDDMGREIPSDAPWKAPLAEEWDNMTMKELLDKLCWTESAKQLATLFVNLCVTAETHEVSALWFLWYVKQCGGTTRIISTTNGGQERKFVGGSGQVSERIMDLLGDRVKLERPVIYIDQTRENVLVETLNHEMYEAKYVISAIPPTLGMKIHFNPPLPMMRNQMITRVPLGSVIKCIVYYKEPFWRKKDYCGTMIIDGEEAPVAYTLDDTKPEGNYAAIMGFILAHKARKLARLTKEERLKKLCELYAKVLGSLEALEPVHYEEKNWCEEQYSGGCYTTYFPPGILTQYGRVLRQPVDRIYFAGTETATHWSGYMEGAVEAGERAAREILHAMGKIPEDEIWQSEPESVDVPAQPITTTFLERHLPSVPGLLRLIGLTTIFSATALGFLAHKRGLLVRV
With B1, the Km was determined as 19 ± 3 µM.
